Measured values as given in patent US20250101086A1 (RESEARCH FOUNDATION OF THE CITY UNIVERSITY OF NEW YORK, published 2025).

T1: IR4 peptide (Borrelia burgdorferi strain B31, biotin-labeled on the N terminus)
T1 construct: also called invariant region 4
T1 peptide: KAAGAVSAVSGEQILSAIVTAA

T2: IR6 peptide (Borrelia burgdorferi strain B31, biotin-labeled on the N terminus)
T2 construct: Synthetic peptide based on VlsE of strain B31 (GenBank U76405); also called invariant region 6
T2 peptide: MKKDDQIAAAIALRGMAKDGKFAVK


Assays:
IR4 peptide = target: T1, IR4 peptide; experiment: not given; it says that supporting data are given elsewhere in the disclosure (ELISA)
[1] = target: T3, recombinant VlsE protein (of strain B31) (Borrelia burgdorferi strain B31); experiment: titration on VlsE, given as ED50; method not given
T3 construct: domain: vlsE cassette region (including the IR1 through VR6 regions); Preparation of about 65% purity; Used as immunogen, as ELISA antigen and on beads; also called VISE; recombinant B31 VlsE

IR6 peptide = target: T2, IR6 peptide; experiment: ELISA of purified rMAb on coated peptide

Binder	binding result (IR4 peptide)	EC50 [1] [µg/mL]	binding result (IR6 peptide)
antibody with VH SEQ ID NO: 5 and VL SEQ ID NO: 6 (antibody, V domains shown) VH: QSVEESGGRLVTPGTPLTLTCTVSGFPLSSYSMAWVRQAPGKGLEYIGFINTDGSAYYASWAKGRITISKTSTTVELKITSPTTEDTATYFCGTGNIWGPGTLVTVSS VL: AQVLTQTPSSVSAAVGGTVTINCQASQSVSNNNVLAWFQQKPGQPPKRLIYSALTLDSGVPSRFKGSGSGTHFTLTISGVQCDDAATYYCAGGYDCSSNDCIAFGGGTEVVVK	binds		
antibody with VH SEQ ID NO: 7 and VL SEQ ID NO: 8 (antibody, V domains shown) VH: QSVEESGGRLVTPGTPLTLTCTVSGFSLSSYSMGWVRQAPGKGLEYIGMIISNNSTYYASWAKGRITISKTSTTVELKITSPTTEDTATYFCGTGNIWGPGTLVTVSS VL: AQVLTQTPASVSAAVGGTVTINCQASQSTSNNNALAWFQQKPGQPPKRLIYSALTLDSGVPSRFKGSGSGTHFTLTISGVQCDDAATYYCAGGYDCSSNDCITFGGGTEVVVK	binds		
1D11 recombinant monoclonal antibody (re-cloned from the second most abundant VH and VL sequences) (antibody, V domains shown, Rabbit recombinant monoclonal IgG; the rabbit constant regions are cited to the literature; The variable fragments were cloned into pcDNA3.4 and expressed in mouse cells; also called ID11; new rMAb) VH: QSLVESGGGLVQPEGSLTLTCKASGFSFSSGYDMCWVRQAPGKGLEYIACIDAGDDITHYASWVKGRFTVSKTSSTTVTLQLNSLTVADTATYFCGRFWDLWGPGTLVTVSS VL: SVLTQTPSPVSAAVGGTVTINCQSSQSVYDSTWLGWYQQKPGQPPKLLIYKASNLASGVPSRFKGSGSGTHFTLTISDLECDDAATYYCVGGYSGSVDNWAFGGGTEVVVK		0.0109	binds
antibody with VH SEQ ID NO: 3 and VL SEQ ID NO: 4 (antibody, V domains shown) VH: QSLEESGGGLFKPTDTLTLTCTVSGIDLSSYAMIWVRQAPGKGLEWIGYIWSSGRIWYASWAKGRFTISRTSTTVDLKLASPTTEDTATYFCARLWDIWGPGTLVTVSS VL: AQVLTQTPSSVSAAVGGTVTISCQASQSLYNGVNLAWYQQKPGQPPKLLIFGASNLESGVSSRFRGSGSGTQFTLTISGVQCDDAATYYCLGEFSCSSADCLAFGGGTEVVVK	binds		
